Measured values from the Immune Epitope Database (IEDB).
pIC50: −log10 of the molar value.

Experiments:
Assay in all cases: IEDB peptide-MHC binding, purified MHC/competitive/radioactivity; ≥ and ≤ were set here for values at or beyond the usual limits of such assays
Conditions in all cases: source organism: Hepatitis delta virus
HLA-B*44:03 = target: HLA-B*44:03
HLA-B*18:01 = target: HLA-B*18:01
HLA-B*44:02 = target: HLA-B*44:02
HLA-B*07:02 = target: HLA-B*07:02
HLA-B*52:01 = target: HLA-B*52:01
HLA-B*35:01 = target: HLA-B*35:01
HLA-A*02:05 = target: HLA-A*02:05
HLA-B*58:01 = target: HLA-B*58:01
HLA-B*27:05 = target: HLA-B*27:05

Row | Sequence | pIC50 (HLA-B*07:02) | pIC50 (HLA-B*52:01) | pIC50 (HLA-B*35:01) | pIC50 (HLA-A*02:05) | other results
1 | DDNPWLGNI | – | – | – | – | pIC50 (HLA-B*44:03): 5.04; pIC50 (HLA-B*18:01): ≤ 4.30; pIC50 (HLA-B*44:02): 4.46
2 | DRGFPWDILF | ≤ 4.30 | 5.33 | ≤ 4.30 | ≤ 4.30 | –
3 | EENLWLGNI | – | – | – | – | pIC50 (HLA-B*44:03): 6.66; pIC50 (HLA-B*18:01): 5.70; pIC50 (HLA-B*44:02): 6.33
4 | FPWDILFPA | 7.02 | – | 8.24 | 5.03 | –
5 | FPWDILFPS | 4.87 | – | 7.57 | 4.93 | –
6 | FPWDLLFPA | 6.33 | – | 7.74 | 5.38 | –
7 | FPWDMLFPA | 6.37 | – | 8.77 | 5.24 | –
8 | NQGIPWDILF | ≤ 4.30 | 5.83 | ≤ 4.30 | 5.14 | –
9 | QGFPWDILF | 4.35 | 7.74 | 6.93 | 5.02 | –
10 | QGFPWDLLF | ≤ 4.30 | 6.87 | 6.67 | 5.47 | –
11 | RGDREFPW | – | – | – | – | pIC50 (HLA-B*58:01): 6.71
12 | RGSQGFPW | – | – | – | – | pIC50 (HLA-B*58:01): 7.85
13 | RRKALENKR | – | – | – | – | pIC50 (HLA-B*27:05): 6.96
14 | RRKALENKS | – | – | – | – | pIC50 (HLA-B*27:05): 4.87
15 | SQGFPWDILF | ≤ 4.30 | 5.44 | ≤ 4.30 | 5.51 | –
16 | TGRQGFPW | – | – | – | – | pIC50 (HLA-B*58:01): 5.81
